B1: M103205H795-P1375m/M103202L889-SK1 (antibody, human IgG1, kappa)
heavy: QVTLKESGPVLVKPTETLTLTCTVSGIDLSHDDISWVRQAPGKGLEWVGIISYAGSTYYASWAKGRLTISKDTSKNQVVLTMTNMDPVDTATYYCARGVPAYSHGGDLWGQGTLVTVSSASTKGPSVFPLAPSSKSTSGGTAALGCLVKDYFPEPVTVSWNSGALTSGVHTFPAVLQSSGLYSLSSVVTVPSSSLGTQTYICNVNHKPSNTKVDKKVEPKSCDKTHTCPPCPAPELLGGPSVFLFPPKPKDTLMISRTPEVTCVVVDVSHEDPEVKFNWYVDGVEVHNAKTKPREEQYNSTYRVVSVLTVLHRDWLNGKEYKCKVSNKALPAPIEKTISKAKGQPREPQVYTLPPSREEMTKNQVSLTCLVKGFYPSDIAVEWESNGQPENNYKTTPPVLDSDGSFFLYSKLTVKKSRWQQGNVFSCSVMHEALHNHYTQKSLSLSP
light: DIVMTQSPATLSLSPGERATLSCTSSQSVYHANWLSWFQQKPGQPPKLLIYWASTLAYGVPSRFSGSGSGTDFTLTISSLQPEDAATYYCAGGYGGGRYAFGQGTKVEIKRTVAAPSVFIFPPSDEQLKSGTASVVCLLNNFYPREAKVQWKVDNALQSGNSQESVTEQDSKDSTYSLSSTLTLSKADYEKHKVYACEVTHQGLSSPVTKSFNRGEC
notes: also called MS1032LO06-P1375m
B2: M103205H795-P1530m/M103202L889-SK1 (antibody, human IgG1, kappa)
heavy: not shown
light: B1 light
B3: M103205H795-P1383m/M103202L889-SK1 (antibody, human IgG1, kappa)
heavy: QVTLKESGPVLVKPTETLTLTCTVSGIDLSHDDISWVRQAPGKGLEWVGIISYAGSTYYASWAKGRLTISKDTSKNQVVLTMTNMDPVDTATYYCARGVPAYSHGGDLWGQGTLVTVSSASTKGPSVFPLAPSSKSTSGGTAALGCLVKDYFPEPVTVSWNSGALTSGVHTFPAVLQSSGLYSLSSVVTVPSSSLGTQTYICNVNHKPSNTKVDKKVEPKSCDKTHTCPPCPAPELLGGPSVFLFPPKPKDTLMISRTPEVTCVVVDVSHEDPEVKFNWYVDGVEVHNAKTKPREEQYNSTYRVVSVLTVLHRDWLNGKEYKCKVSNKALPAPIEKTISKAKGQPREPQVYTLPPSREEMTKNQVSLTCLVKGFYPSDIAVEWESNGQPENNYKTTPPVLDRDGSFFLYSKLTVKKSRWQQGNVFSCSVMHEALHNHYTQKSLSLSP
light: B1 light
notes: also called MS1032LO06-P1383m
B4: M103205H795-P1497m/M103202L889-SK1 (antibody, human IgG1, kappa)
heavy: not shown
light: B1 light
B5: M103205H795-P1486m/M103202L889-SK1 (antibody, human IgG1, kappa)
heavy: not shown
light: B1 light
B6: M103205H795-P1525m/M103202L889-SK1 (antibody, human IgG1, kappa)
heavy: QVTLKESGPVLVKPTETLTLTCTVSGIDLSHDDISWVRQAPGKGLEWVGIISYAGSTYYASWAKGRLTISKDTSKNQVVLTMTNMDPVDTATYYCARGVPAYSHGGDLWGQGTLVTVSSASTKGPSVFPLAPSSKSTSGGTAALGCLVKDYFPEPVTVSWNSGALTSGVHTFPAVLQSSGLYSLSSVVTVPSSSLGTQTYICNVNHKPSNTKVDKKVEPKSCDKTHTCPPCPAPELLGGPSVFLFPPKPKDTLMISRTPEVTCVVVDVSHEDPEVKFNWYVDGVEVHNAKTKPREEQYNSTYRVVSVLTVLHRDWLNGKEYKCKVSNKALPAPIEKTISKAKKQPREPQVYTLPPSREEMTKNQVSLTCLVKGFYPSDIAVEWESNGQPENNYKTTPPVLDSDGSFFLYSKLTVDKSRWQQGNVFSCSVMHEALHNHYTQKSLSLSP
light: B1 light
B7: M103205H795-P1499m/M103202L889-SK1 (antibody, human IgG1, kappa)
heavy: not shown
light: B1 light
notes: also called MS1032LO06-P1499m
B8: M103205H795-P1534m/M103202L889-SK1 (antibody, human IgG1, kappa)
heavy: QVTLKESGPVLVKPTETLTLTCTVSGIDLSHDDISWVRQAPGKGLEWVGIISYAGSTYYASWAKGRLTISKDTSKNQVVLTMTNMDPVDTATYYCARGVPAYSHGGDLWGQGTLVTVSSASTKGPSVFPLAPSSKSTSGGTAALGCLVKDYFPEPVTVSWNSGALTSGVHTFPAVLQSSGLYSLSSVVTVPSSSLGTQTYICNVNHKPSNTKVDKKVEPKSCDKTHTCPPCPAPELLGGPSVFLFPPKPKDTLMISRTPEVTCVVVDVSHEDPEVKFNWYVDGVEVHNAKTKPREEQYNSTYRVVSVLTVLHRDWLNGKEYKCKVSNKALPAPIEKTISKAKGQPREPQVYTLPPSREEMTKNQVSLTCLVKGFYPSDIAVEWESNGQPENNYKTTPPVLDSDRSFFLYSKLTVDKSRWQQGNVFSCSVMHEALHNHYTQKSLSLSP
light: B1 light
B9: M103205H795-P1488m/M103202L889-SK1 (antibody, human IgG1, kappa)
heavy: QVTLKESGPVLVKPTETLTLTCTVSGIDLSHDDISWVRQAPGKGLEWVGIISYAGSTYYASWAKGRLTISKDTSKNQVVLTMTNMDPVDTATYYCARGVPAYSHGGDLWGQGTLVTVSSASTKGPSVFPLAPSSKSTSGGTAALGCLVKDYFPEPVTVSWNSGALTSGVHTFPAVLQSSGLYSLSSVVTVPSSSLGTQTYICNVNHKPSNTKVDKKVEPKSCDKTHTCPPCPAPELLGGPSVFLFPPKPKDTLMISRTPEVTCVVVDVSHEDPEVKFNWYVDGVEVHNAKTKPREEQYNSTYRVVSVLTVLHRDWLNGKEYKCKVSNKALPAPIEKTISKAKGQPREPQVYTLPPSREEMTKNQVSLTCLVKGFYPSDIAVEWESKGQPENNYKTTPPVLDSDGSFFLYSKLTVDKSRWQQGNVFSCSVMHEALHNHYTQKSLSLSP
light: B1 light
B10: M103205H795-P1527m/M103202L889-SK1 (antibody, human IgG1, kappa)
heavy: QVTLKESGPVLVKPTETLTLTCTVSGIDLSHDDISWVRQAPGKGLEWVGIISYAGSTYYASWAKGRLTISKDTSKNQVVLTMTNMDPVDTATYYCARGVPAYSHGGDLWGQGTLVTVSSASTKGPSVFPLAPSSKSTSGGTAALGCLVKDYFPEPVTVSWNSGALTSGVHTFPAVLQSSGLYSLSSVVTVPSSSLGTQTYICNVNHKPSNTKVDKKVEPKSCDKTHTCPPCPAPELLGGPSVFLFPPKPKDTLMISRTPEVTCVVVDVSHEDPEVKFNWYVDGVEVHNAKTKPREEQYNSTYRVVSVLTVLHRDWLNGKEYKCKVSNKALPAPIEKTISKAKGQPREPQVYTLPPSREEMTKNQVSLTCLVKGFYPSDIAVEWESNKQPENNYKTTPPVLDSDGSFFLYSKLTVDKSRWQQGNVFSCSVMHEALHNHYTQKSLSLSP
light: B1 light
B11: M103205H795-P1485m/M103202L889-SK1 (antibody, human IgG1, kappa)
heavy: not shown
light: B1 light
B12: M103205H795-P1487m/M103202L889-SK1 (antibody, human IgG1, kappa)
heavy: not shown
light: B1 light
B13: M103205H795-P1537m/M103202L889-SK1 (antibody, human IgG1, kappa)
heavy: not shown
light: B1 light
B14: M103205H795-P1494m/M103202L889-SK1 (antibody, human IgG1, kappa)
heavy: not shown
light: B1 light
B15: M103205H795-P1489m/M103202L889-SK1 (antibody, human IgG1, kappa)
heavy: not shown
light: B1 light
B16: M103205H795-P1535m/M103202L889-SK1 (antibody, human IgG1, kappa)
heavy: not shown
light: B1 light
B17: M103205H795-P1484m/M103202L889-SK1 (antibody, human IgG1, kappa)
heavy: not shown
light: B1 light
B18: M103205H795-P1498m/M103202L889-SK1 (antibody, human IgG1, kappa)
heavy: not shown
light: B1 light
B19: M103205H795-P1538m/M103202L889-SK1 (antibody, human IgG1, kappa)
heavy: not shown
light: B1 light
B20: M103205H795-P1531m/M103202L889-SK1 (antibody, human IgG1, kappa)
heavy: not shown
light: B1 light
B21: M103205H795-P1378m/M103202L889-SK1 (antibody, human IgG1, kappa)
heavy: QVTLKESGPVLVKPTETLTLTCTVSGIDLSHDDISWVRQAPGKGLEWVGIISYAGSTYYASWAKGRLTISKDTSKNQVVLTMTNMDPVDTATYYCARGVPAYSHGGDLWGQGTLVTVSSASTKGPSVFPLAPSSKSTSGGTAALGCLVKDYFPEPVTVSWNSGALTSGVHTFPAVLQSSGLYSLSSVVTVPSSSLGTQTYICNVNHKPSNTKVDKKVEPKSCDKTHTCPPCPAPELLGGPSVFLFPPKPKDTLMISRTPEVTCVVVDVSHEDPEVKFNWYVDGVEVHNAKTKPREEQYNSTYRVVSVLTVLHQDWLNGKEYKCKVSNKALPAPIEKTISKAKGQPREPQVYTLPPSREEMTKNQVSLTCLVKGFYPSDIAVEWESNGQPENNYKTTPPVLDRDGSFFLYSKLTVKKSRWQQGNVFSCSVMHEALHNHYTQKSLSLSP
light: B1 light
notes: also called MS1032LO06-P1378m
B22: M103205H795-P1533m/M103202L889-SK1 (antibody, human IgG1, kappa)
heavy: not shown
light: B1 light
B23: M103205H795-P1539m/M103202L889-SK1 (antibody, human IgG1, kappa)
heavy: not shown
light: B1 light
B24: M103205H795-P1529m/M103202L889-SK1 (antibody, human IgG1, kappa)
heavy: not shown
light: B1 light
B25: M103205H795-P1522m/M103202L889-SK1 (antibody, human IgG1, kappa)
heavy: not shown
light: B1 light
B26: M103205H795-P1491m/M103202L889-SK1 (antibody, human IgG1, kappa)
heavy: not shown
light: B1 light
B27: M103205H795-P1500m/M103202L889-SK1 (antibody, human IgG1, kappa)
heavy: not shown
light: B1 light
B28: M103205H795-P1496m/M103202L889-SK1 (antibody, human IgG1, kappa)
heavy: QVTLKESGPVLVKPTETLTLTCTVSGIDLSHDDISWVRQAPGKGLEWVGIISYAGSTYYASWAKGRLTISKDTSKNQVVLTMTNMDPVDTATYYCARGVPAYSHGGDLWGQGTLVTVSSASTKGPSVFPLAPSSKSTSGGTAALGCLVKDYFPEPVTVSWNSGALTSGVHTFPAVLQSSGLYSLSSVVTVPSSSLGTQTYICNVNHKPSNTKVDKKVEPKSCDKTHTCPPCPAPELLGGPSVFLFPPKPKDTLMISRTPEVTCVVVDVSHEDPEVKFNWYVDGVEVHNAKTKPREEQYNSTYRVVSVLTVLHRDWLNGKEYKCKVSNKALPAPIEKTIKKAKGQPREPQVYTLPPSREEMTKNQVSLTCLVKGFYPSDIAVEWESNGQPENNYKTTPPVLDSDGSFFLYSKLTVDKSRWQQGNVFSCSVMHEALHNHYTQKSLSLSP
light: B1 light
B29: M103205H795-P1492m/M103202L889-SK1 (antibody, human IgG1, kappa)
heavy: not shown
light: B1 light
B30: M103205H795-P1524m/M103202L889-SK1 (antibody, human IgG1, kappa)
heavy: not shown
light: B1 light
B31: M103205H795-P1536m/M103202L889-SK1 (antibody, human IgG1, kappa)
heavy: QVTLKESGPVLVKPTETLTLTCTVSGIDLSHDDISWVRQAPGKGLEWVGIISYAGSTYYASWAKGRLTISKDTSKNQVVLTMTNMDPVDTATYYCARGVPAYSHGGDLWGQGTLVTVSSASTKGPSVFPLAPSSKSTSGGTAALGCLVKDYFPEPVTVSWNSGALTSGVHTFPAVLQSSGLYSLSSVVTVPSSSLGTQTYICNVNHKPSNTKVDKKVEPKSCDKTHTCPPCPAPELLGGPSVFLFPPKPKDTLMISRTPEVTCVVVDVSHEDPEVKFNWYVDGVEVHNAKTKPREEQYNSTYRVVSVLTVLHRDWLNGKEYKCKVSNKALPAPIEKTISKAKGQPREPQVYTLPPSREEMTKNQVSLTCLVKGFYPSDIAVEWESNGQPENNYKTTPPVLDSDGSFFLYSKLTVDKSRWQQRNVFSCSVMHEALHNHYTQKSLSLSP
light: B1 light
B32: M103205H795-P1532m/M103202L889-SK1 (antibody, human IgG1, kappa)
heavy: not shown
light: B1 light
B33: M103205H795-P1493m/M103202L889-SK1 (antibody, human IgG1, kappa)
heavy: not shown
light: B1 light
B34: M103205H795-P1495m/M103202L889-SK1 (antibody, human IgG1, kappa)
heavy: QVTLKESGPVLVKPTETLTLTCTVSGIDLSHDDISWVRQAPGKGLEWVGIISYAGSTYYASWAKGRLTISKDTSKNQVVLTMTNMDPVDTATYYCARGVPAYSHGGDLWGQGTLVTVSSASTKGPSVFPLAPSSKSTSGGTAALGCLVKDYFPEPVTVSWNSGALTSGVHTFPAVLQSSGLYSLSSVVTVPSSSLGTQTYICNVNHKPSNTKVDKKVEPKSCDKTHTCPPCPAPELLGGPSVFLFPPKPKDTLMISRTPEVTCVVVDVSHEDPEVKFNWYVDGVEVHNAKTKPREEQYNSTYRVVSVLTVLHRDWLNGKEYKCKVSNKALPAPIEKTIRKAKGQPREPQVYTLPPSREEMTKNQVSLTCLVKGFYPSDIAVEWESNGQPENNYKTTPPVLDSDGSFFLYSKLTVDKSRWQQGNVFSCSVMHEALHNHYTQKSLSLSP
light: B1 light
B35: M103205H795-P1523m/M103202L889-SK1 (antibody, human IgG1, kappa)
heavy: not shown
light: B1 light
B36: M103205H795-P1528m/M103202L889-SK1 (antibody, human IgG1, kappa)
heavy: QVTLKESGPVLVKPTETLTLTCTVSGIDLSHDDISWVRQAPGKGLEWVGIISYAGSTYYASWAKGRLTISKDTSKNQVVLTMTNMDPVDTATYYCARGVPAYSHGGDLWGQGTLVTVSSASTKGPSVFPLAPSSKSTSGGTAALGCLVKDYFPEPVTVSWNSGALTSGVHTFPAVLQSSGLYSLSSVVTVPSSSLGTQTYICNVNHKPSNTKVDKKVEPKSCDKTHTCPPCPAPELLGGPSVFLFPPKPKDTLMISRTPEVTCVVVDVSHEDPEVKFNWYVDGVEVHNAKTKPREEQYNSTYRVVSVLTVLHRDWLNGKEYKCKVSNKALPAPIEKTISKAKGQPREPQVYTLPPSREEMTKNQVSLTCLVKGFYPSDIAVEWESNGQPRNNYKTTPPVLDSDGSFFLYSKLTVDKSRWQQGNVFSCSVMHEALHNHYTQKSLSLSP
light: B1 light
B37: M103205H795-P1526m/M103202L889-SK1 (antibody, human IgG1, kappa)
heavy: not shown
light: B1 light
B38: M103205H795-P1501m/M103202L889-SK1 (antibody, human IgG1, kappa)
heavy: not shown
light: B1 light
B39: M103205H795-P1490m/M103202L889-SK1 (antibody, human IgG1, kappa)
heavy: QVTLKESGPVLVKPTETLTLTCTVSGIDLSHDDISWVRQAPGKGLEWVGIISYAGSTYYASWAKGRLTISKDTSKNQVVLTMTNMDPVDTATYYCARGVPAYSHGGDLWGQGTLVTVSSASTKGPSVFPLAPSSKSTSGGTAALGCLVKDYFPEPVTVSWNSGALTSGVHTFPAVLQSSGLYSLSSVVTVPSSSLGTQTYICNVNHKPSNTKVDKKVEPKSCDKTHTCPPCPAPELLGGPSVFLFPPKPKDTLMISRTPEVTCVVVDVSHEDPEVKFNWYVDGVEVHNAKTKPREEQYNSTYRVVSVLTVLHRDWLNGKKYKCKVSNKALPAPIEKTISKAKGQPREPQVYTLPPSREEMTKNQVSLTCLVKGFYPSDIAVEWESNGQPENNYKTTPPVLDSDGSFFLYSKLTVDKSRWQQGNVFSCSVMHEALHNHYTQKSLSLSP
light: B1 light

Key:
[1] = target: T1, soluble mouse FcγRII, His-tagged (mouse, UniProt P08101 30-210, limits assumed); test: SPR, mouse FcgRII-His captured, antigen-antibody complex injected, pH7.4, 25C
T1 construct: Captured on the chip by an anti-His antibody
T1 sequence (looked up): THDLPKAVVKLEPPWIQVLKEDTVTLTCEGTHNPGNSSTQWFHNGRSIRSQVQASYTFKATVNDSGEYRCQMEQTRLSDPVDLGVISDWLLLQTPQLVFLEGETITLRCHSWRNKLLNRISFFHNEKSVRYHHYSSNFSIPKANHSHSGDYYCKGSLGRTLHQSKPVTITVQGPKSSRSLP
Method: Regarding the produced Fc region variant-containing antibodies, binding assays between soluble mouse FcγRII and antigen-antibody complexes were performed using BIACORE® T200 (GE Healthcare). Soluble mouse FcγRII was produced in the form of a His-tagged molecule by a method known to those skilled in the art. An appropriate amount of an anti-His antibody was fixed onto Sensor chip CM5 (GE Healthcare) by the amine coupling method using a His capture kit (GE Healthcare) to capture mouse FcγRII. Next, an antibody-antigen complex and a running buffer (as a reference solution) were injected, and interaction was allowed to take place with the mouse FcγRII captured onto the sensor chip. 20 mM N-(2-Acetamido)-2-aminoethanesulfonic acid, 150 mM NaCl, 1.2 mM CaCl₂, and 0.05% (w/v) TWEEN, 20 at pH7.4 was used as the running buffer, and the respective buffer was also used to dilute the soluble mouse FcγRII. To regenerate the sensor chip, 10 mM glycine-HCl at pH1.5 was used. All measurements were carried out at 25° C. […] To calculate the parameters, the BIACORE® T100 Evaluation Software (GE Healthcare) was used.

[2] = target: T2, human FcγRIIb constitutively expressed on MDCK cells (human, UniProt P31994 43-310); test: cell-based or functional assay
T2 sequence (looked up): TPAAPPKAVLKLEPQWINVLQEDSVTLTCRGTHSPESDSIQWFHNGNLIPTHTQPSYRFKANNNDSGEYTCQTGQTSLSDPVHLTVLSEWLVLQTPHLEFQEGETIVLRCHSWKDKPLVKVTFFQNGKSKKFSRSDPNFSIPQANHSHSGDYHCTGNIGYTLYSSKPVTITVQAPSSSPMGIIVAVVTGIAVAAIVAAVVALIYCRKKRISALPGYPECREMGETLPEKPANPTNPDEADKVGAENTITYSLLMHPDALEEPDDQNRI

Row | Binder | biacore IC binding [1] | celluar uptake [2]
1 | B1 | 1.21 relative to SG1 (=1.00) | 3.43 relative to SG1 (=1.00)
2 | B2 | 1.09 relative to SG1 (=1.00) | 3.12 relative to SG1 (=1.00)
3 | B3 | 1.41 relative to SG1 (=1.00) | 5.68 relative to SG1 (=1.00)
4 | B4 | 1.49 relative to SG1 (=1.00) | 1.38 relative to SG1 (=1.00)
5 | B5 | 1.2 relative to SG1 (=1.00) | 1.52 relative to SG1 (=1.00)
6 | B6 | 1.31 relative to SG1 (=1.00) | 3.55 relative to SG1 (=1.00)
7 | B7 | 1.98 relative to SG1 (=1.00) | 3.61 relative to SG1 (=1.00)
8 | B8 | 1.12 relative to SG1 (=1.00) | 3.12 relative to SG1 (=1.00)
9 | B9 | 1.43 relative to SG1 (=1.00) | 1.45 relative to SG1 (=1.00)
10 | B10 | 0.98 relative to SG1 (=1.00) | 0.92 relative to SG1 (=1.00)
11 | B11 | 1.29 relative to SG1 (=1.00) | 1.88 relative to SG1 (=1.00)
12 | B12 | 1.46 relative to SG1 (=1.00) | 1.23 relative to SG1 (=1.00)
13 | B13 | 1.32 relative to SG1 (=1.00) | 2.77 relative to SG1 (=1.00)
14 | B14 | 1.14 relative to SG1 (=1.00) | 1.12 relative to SG1 (=1.00)
15 | B15 | 1.24 relative to SG1 (=1.00) | 1.68 relative to SG1 (=1.00)
16 | B16 | 1.11 relative to SG1 (=1.00) | 2.49 relative to SG1 (=1.00)
17 | B17 | 1.33 relative to SG1 (=1.00) | 0 relative to SG1 (=1.00)
18 | B18 | 1.38 relative to SG1 (=1.00) | 1.56 relative to SG1 (=1.00)
19 | B19 | 1.11 relative to SG1 (=1.00) | 1.84 relative to SG1 (=1.00)
20 | B20 | 1.01 relative to SG1 (=1.00) | 2.35 relative to SG1 (=1.00)

Row | Binder | biacore IC binding [1] | celluar uptake [2]
21 | B21 | 1.23 relative to SG1 (=1.00) | 3.86 relative to SG1 (=1.00)
22 | B22 | 1.18 relative to SG1 (=1.00) | 3.52 relative to SG1 (=1.00)
23 | B23 | 0.9 relative to SG1 (=1.00) | 3.2 relative to SG1 (=1.00)
24 | B24 | 1.08 relative to SG1 (=1.00) | 2.86 relative to SG1 (=1.00)
25 | B25 | 1.24 relative to SG1 (=1.00) | 2.13 relative to SG1 (=1.00)
26 | B26 | 1.05 relative to SG1 (=1.00) | 1.37 relative to SG1 (=1.00)
27 | B27 | 1.32 relative to SG1 (=1.00) | 1.82 relative to SG1 (=1.00)
28 | B28 | 1.28 relative to SG1 (=1.00) | 1.69 relative to SG1 (=1.00)
29 | B29 | 0.88 relative to SG1 (=1.00) | 1.13 relative to SG1 (=1.00)
30 | B30 | 1.4 relative to SG1 (=1.00) | 3.66 relative to SG1 (=1.00)
31 | B31 | 1.16 relative to SG1 (=1.00) | 2.05 relative to SG1 (=1.00)
32 | B32 | 1.23 relative to SG1 (=1.00) | 4.16 relative to SG1 (=1.00)
33 | B33 | 1.1 relative to SG1 (=1.00) | 0.99 relative to SG1 (=1.00)
34 | B34 | 1.3 relative to SG1 (=1.00) | 1.76 relative to SG1 (=1.00)
35 | B35 | 1.19 relative to SG1 (=1.00) | 1.91 relative to SG1 (=1.00)
36 | B36 | 1.12 relative to SG1 (=1.00) | 3.02 relative to SG1 (=1.00)
37 | B37 | 1.04 relative to SG1 (=1.00) | 1.2 relative to SG1 (=1.00)
38 | B38 | 1.82 relative to SG1 (=1.00) | 2.4 relative to SG1 (=1.00)
39 | B39 | 1.28 relative to SG1 (=1.00) | 1.33 relative to SG1 (=1.00)

Reference: patent publication US20200317768A1 (published 2020)
